{
  "source": "paper PMC8486122",
  "about": "(2021)",
  "binders": {"B1": {"name": "M2B10 Fab (Fab, V domains shown)", "VH": "EVQLQQSGAELVRPGTSVKVSCKASGYAFTNYLIEWVKQRPGQGLEWIGVINPGIGNTNYNEKFKGKATLTADKSSSTVYMQLSSLTSDDSAVYFCARGLNYGSSQHWYFDVWGAGTSVTVSS", "VL": "IVMTQSPAILSASLGERVTMTCTASSSVSSSYLHWYQQKPGSSPKLWIYSTSNLASGVPARFSGSGSGTSYSLTISSMEAEDAATYYCHQYHRSPPTFGAGTKLEIK"}, "B2": {"name": "M1H5 Fab (Fab, V domains shown)", "VH": "EVNLVESGGDLVKPGGSLKLSCAASGFTFSSYGMSWVRQTPDKRLEWVATISSGGTYTYYPDSVKGRFTISRDNAKNTLYLQMSSLKSEDTAMYYCAREIMRGGGYYFDYWSQGTTLTVSS", "VL": "DIQMIQSTSSLSASLGDRVTISCRASQDISNYLNWYQQKPDGTVKLLIYYTSRLHSGVPSRFSGSGSGTDYSLTISNLEQEDIATYFCQQGNTLPYTFGGGTKLEIK"}},
  "target": "RTX751 (ACT residues 751–1706) (Bordetella pertussis, UniProt P0DKX7 751-1706)",
  "sequence (P0DKX7 751-1706)": "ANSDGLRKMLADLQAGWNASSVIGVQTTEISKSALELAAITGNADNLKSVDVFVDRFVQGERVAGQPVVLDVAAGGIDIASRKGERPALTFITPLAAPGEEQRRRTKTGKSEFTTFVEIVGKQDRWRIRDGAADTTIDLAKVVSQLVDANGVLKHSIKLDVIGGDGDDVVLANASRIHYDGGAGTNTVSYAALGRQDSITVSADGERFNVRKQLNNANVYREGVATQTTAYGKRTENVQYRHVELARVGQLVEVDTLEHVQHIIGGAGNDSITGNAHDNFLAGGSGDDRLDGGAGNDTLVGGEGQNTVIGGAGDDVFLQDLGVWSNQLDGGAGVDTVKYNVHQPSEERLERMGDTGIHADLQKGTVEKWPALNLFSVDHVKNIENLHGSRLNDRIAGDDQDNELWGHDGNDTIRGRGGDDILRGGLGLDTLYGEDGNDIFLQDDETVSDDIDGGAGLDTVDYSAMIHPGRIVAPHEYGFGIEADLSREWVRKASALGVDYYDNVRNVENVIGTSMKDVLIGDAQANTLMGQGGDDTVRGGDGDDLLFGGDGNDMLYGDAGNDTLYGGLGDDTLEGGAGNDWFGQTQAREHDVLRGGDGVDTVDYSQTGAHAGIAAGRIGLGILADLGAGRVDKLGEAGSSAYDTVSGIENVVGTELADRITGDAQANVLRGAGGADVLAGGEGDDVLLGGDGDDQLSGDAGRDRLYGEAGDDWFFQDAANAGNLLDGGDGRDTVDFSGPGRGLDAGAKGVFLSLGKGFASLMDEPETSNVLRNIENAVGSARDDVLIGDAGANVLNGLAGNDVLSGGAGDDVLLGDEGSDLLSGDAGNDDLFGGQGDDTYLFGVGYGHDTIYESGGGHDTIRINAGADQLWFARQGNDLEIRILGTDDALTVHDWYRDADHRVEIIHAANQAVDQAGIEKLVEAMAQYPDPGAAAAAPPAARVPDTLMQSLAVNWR",
  "experiment": "SPR",
  "data": [
    {"binder": "B1", "values": [
      {"measurement": "koff", "result": 0.00121, "unit": "s⁻¹"}
    ]},
    {"binder": "B2", "values": [
      {"measurement": "koff", "result": 0.00102, "unit": "s⁻¹"}
    ]}
  ]
}
